To fix the notation:
B1: A3Bctd (193-382)-mycHis (domain or fragment)
chain: not shown
notes: APOBEC3B (A3B) C-terminal catalytic domain (ctd), residues 193-382; wild-type constructs match GenBank NM_004900; also called A3Bctd-mycHis; A3B-mycHis; not shown: myc, C-terminal, kept; His, C-terminal, kept
B2: MBP-BORF2 (1 to 826) (enzyme)
chain: MATTSHVEHELLSKLIDELKVKANSDPEADVLAGRLLHRLKAESVTHTVAEYLEVFSDKFYDEEFFQMHRDELETRVSAFAQSPAYERIVSSGYLSALRYYDTYLYVGRSGKQESVQHFYMRLAGFCASTTCLYAGLRAALQRARPEIESDMEVFDYYFEHLTSQTVCCSTPFMRFAGVENSTLASCILTTPDLSSEWDVTQALYRHLGRYLFQRAGVGVGVTGAGQDGKHISLLMRMINSHVEYHNYGCKRPVSVAAYMEPWHSQIFKFLETKLPENHERCPGIFTGLFVPELFFKLFRDTPWSDWYLFDPKDAGDLERLYGEEFEREYYRLVTAGKFCGRVSIKSLMFSIVNCAVKAGSPFILLKEACNAHFWRDLQGEAMNAANLCAEVLQPSRKSVATCNLANICLPRCLVNAPLAVRAQRADTQGDELLLALPRLSVTLPGEGAVGDGFSLARLRDATQCATFVVACSILQGSPTYDSRDMASMGLGVQGLADVFADLGWQYTDPPSRSLNKEIFEHMYFTALCTSSLIGLHTRKIFPGFKQSKYAGGWFHWHDWAGTDLSIPREIWSRLSERIVRDGLFNSQFIALMPTSGCAQVTGCSDAFYPFYANASTKVTNKEEALRPNRSFWRHVRLDDREALNLVGGRVSCLPEALRQRYLRFQTAFDYNQEDLIQMSRDRAPFVDQSQSHSLFLREEDAARASTLANLLVRSYELGLKTIMYYCRIEKAADLGVMECKASAALSVPREEQNERSPAEQMPPRPMEPAQVAGPVDIMSKGPGEGPGGWCVPGGLEVCYKYRQLFSEDDLLETDGFTERACESCQ
notes: Epstein-Barr virus ribonucleotide reductase large subunit BORF2, residues 1 to 826, codon-optimized gene; wild-type constructs match GenBank V01555.2; Dimer in the cryo-EM structure; The MBP tag was not detected in the maps; also called EBV RNR large subunit; wild-type BORF2; source: 293T, transfected; purified (amylose resin, SEC); not shown: MBP, N-terminal, kept

The data set “MBP-BORF2 (1 to 826)” addresses B2. The data set can be described thus: BLI; Octet RED; A3-mycHis proteins loaded on Ni-NTA biosensors (12.5 ug/ml A3Bctd and A3A, 8 ug/ml A3G); MBP-BORF2 200 to 6.25 nM; 20 mM tris-HCl (pH 8), 300 mM NaCl; 30°C; association 1200 s, dissociation 1800 s; 1:2 binding model. The settings on record: both partners purified.
In the data set “A3Bctd (193-382)-mycHis” the target is B1. The data set can be described thus: SEC; BORF2 and A3Bctd purified individually with affinity resins, mixed with excess A3Bctd, run on SEC; SDS-PAGE of the fractions of the major peak; 20 mM tris-HCl (pH 8), 150 mM NaCl. The settings on record: both partners purified.
Data set [1] deals with the molecule itself. In words: cryo-EM structure; MBP-BORF2 (after amylose resin) mixed with excess purified A3Bctd-mycHis, complex isolated by SEC in 20 mM tris-HCl (pH 8), 150 mM NaCl, 1 mM TCEP; dimeric classes, C2, focused refinement.
Data set [2] deals with the molecule itself. In words: SEC; MBP-BORF2 and mutant derivatives purified with amylose resin; approximately 150 ug of each on S200 Increase in 10 mM tris-HCl (pH 8), 150 mM NaCl; self-association (dimer to monomers).

These results are taken from article PMC9045721, “Cryo-EM structure of the EBV ribonucleotide reductase BORF2 and mechanism of APOBEC3B inhibition” (Science Advances, 2022).

Sequence of A3Bctd (193-382)-mycHis (Q9UH17 193-382): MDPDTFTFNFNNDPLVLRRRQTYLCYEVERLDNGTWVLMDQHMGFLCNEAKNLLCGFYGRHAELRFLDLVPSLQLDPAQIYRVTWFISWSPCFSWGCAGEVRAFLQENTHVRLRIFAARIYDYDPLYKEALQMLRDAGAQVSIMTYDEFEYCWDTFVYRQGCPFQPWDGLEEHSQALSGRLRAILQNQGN

For the molecule B1, in the data set with MBP-BORF2 (1 to 826), the dissociation constant (Kd) is about 1 nM.
B2: the entries for the “stoichiometry N” value (with A3Bctd (193-382)-mycHis; in data set [1]) were 1 and 2, respectively.

B3: MBP-BORF2 D26R (enzyme, Epstein-Barr virus (EBV), UniProt P03190 1-826, looked up)
chain: MATTSHVEHELLSKLIDELKVKANSRPEADVLAGRLLHRLKAESVTHTVAEYLEVFSDKFYDEEFFQMHRDELETRVSAFAQSPAYERIVSSGYLSALRYYDTYLYVGRSGKQESVQHFYMRLAGFCASTTCLYAGLRAALQRARPEIESDMEVFDYYFEHLTSQTVCCSTPFMRFAGVENSTLASCILTTPDLSSEWDVTQALYRHLGRYLFQRAGVGVGVTGAGQDGKHISLLMRMINSHVEYHNYGCKRPVSVAAYMEPWHSQIFKFLETKLPENHERCPGIFTGLFVPELFFKLFRDTPWSDWYLFDPKDAGDLERLYGEEFEREYYRLVTAGKFCGRVSIKSLMFSIVNCAVKAGSPFILLKEACNAHFWRDLQGEAMNAANLCAEVLQPSRKSVATCNLANICLPRCLVNAPLAVRAQRADTQGDELLLALPRLSVTLPGEGAVGDGFSLARLRDATQCATFVVACSILQGSPTYDSRDMASMGLGVQGLADVFADLGWQYTDPPSRSLNKEIFEHMYFTALCTSSLIGLHTRKIFPGFKQSKYAGGWFHWHDWAGTDLSIPREIWSRLSERIVRDGLFNSQFIALMPTSGCAQVTGCSDAFYPFYANASTKVTNKEEALRPNRSFWRHVRLDDREALNLVGGRVSCLPEALRQRYLRFQTAFDYNQEDLIQMSRDRAPFVDQSQSHSLFLREEDAARASTLANLLVRSYELGLKTIMYYCRIEKAADLGVMECKASAALSVPREEQNERSPAEQMPPRPMEPAQVAGPVDIMSKGPGEGPGGWCVPGGLEVCYKYRQLFSEDDLLETDGFTERACESCQ
notes: Epstein-Barr virus BORF2, residues 1 to 826, codon-optimized gene; GenBank V01555.2; source: 293T, transfected; purified with amylose resin (SEC profiles); in lysate (co-IP); not shown: MBP, N-terminal, kept
On to B3, for which the binding result in data set [2] is “binds”.

B4: MBP-BORF2 R39E/D26R (enzyme, Epstein-Barr virus (EBV), UniProt P03190 1-826, looked up)
chain: MATTSHVEHELLSKLIDELKVKANSRPEADVLAGRLLHELKAESVTHTVAEYLEVFSDKFYDEEFFQMHRDELETRVSAFAQSPAYERIVSSGYLSALRYYDTYLYVGRSGKQESVQHFYMRLAGFCASTTCLYAGLRAALQRARPEIESDMEVFDYYFEHLTSQTVCCSTPFMRFAGVENSTLASCILTTPDLSSEWDVTQALYRHLGRYLFQRAGVGVGVTGAGQDGKHISLLMRMINSHVEYHNYGCKRPVSVAAYMEPWHSQIFKFLETKLPENHERCPGIFTGLFVPELFFKLFRDTPWSDWYLFDPKDAGDLERLYGEEFEREYYRLVTAGKFCGRVSIKSLMFSIVNCAVKAGSPFILLKEACNAHFWRDLQGEAMNAANLCAEVLQPSRKSVATCNLANICLPRCLVNAPLAVRAQRADTQGDELLLALPRLSVTLPGEGAVGDGFSLARLRDATQCATFVVACSILQGSPTYDSRDMASMGLGVQGLADVFADLGWQYTDPPSRSLNKEIFEHMYFTALCTSSLIGLHTRKIFPGFKQSKYAGGWFHWHDWAGTDLSIPREIWSRLSERIVRDGLFNSQFIALMPTSGCAQVTGCSDAFYPFYANASTKVTNKEEALRPNRSFWRHVRLDDREALNLVGGRVSCLPEALRQRYLRFQTAFDYNQEDLIQMSRDRAPFVDQSQSHSLFLREEDAARASTLANLLVRSYELGLKTIMYYCRIEKAADLGVMECKASAALSVPREEQNERSPAEQMPPRPMEPAQVAGPVDIMSKGPGEGPGGWCVPGGLEVCYKYRQLFSEDDLLETDGFTERACESCQ
notes: Epstein-Barr virus BORF2, residues 1 to 826, codon-optimized gene; GenBank V01555.2; also called D26R/R39E BORF2; double mutant R39E/D26R; source: 293T, transfected; purified with amylose resin (SEC profiles); in lysate (co-IP); not shown: MBP, N-terminal, kept
Consider B4, for which, in data set [2], the binding result is on record as “binds”.
